According to paper PMC11944577:

Molecular target: T1, MgrA (Staphylococcus aureus XN108) (UniProt P0C1S0)
T1 sequence: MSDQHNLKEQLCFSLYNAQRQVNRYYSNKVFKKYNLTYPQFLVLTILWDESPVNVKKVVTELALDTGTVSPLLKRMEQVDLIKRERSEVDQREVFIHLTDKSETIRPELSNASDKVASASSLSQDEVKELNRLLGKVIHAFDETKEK
Assay: competition

Sequence: TTTACGTGCAGCACGTTCACGTACCTCAAAGTTACCGAAACCAATTAATTGTACTTTTTCACCTTTAGCAAGTGAGTTTTGGATTGATTCGAATACAGCATCTACTGCTGAACCAGCTTCTTTTT (double strand) [hu fragment (competitor)]
- binding: no binding
